The target of one experiment is T1, human His-laminin-α4 (human, UniProt Q16363 833-1823, limits assumed).
T1 construct: Bought His-tagged recombinant protein (R & D Systems); also called Human LAMA4; human His-laminin-α4 (R & D Systems)
T1 sequence: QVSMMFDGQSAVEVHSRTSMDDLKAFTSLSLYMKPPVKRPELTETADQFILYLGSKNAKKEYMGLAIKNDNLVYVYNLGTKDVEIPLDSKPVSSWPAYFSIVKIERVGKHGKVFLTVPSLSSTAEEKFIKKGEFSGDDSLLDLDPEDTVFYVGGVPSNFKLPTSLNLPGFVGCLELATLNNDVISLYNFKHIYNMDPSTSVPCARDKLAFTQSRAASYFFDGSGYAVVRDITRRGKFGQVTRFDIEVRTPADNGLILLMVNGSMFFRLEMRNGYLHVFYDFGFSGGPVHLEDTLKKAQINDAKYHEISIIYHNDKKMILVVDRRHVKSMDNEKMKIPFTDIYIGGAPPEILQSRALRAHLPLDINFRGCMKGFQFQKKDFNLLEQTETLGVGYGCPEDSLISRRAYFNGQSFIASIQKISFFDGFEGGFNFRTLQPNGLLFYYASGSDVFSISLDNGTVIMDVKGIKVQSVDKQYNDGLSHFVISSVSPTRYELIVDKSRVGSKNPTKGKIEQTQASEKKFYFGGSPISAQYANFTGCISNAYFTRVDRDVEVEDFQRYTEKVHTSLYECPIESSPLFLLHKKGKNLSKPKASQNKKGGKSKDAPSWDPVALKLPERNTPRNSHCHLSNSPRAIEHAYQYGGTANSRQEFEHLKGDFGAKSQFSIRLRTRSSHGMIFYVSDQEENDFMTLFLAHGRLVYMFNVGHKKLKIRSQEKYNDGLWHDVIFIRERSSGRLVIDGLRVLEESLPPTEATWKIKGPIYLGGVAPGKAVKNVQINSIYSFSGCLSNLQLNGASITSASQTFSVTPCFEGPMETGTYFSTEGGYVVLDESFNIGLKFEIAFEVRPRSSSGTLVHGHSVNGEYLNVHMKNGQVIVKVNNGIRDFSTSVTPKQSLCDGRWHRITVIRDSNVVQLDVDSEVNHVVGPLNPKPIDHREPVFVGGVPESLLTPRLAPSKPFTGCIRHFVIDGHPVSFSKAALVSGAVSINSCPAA
In words: Biacore SPR.

In the next experiment the target is T2, mouse His-laminin-α4 (mouse, UniProt P97927 826-1816, limits assumed).
T2 construct: Bought His-tagged recombinant protein; also called Murine LAMA4; recombinant mouse LAMA4-His
T2 sequence (looked up): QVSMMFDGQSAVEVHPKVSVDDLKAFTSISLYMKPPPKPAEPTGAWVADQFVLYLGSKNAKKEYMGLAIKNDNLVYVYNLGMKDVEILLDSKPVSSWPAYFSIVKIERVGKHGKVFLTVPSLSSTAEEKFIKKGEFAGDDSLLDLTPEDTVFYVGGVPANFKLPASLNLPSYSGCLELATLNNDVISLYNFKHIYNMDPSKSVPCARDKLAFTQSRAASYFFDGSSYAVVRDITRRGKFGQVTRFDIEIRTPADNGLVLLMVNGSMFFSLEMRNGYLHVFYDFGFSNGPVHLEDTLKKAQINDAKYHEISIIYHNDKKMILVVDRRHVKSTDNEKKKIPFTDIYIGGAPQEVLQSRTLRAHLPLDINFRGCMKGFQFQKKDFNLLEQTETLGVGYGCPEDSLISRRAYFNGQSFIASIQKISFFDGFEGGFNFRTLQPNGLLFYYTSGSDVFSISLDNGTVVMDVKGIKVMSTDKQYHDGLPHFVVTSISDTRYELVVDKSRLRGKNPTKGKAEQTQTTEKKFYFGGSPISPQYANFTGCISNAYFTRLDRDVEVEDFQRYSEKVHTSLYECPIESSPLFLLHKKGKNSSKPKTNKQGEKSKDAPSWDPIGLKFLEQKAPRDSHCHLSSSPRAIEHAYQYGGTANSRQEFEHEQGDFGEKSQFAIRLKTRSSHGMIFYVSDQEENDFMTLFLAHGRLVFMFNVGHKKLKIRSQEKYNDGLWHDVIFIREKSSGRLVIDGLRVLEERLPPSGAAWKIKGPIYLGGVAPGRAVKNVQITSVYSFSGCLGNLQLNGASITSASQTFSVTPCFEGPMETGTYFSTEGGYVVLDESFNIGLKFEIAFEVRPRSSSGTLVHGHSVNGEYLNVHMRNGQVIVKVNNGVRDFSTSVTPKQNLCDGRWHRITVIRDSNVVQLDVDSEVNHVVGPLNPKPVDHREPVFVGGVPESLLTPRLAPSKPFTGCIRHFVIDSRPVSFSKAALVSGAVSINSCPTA
Kind of experiment: Biacore SPR. For orientation: SPR reads the build-up and loss of mass on a sensor chip optically.

Here are results for two molecules from patent US20170158755A1 (PROTHENA BIOSCIENCES, published 2017).

B1: mouse monoclonal antibody 1C1 (antibody, V domains shown)
VH: QVQLQQSGAELARPGASVKLSCKASGYTFTNYGISWVKQRTGQGLEWIGAIYPRSGNTYYNEKFKGKATLTADKSSSTAYMELRSLTSEDSAVYFCARERDYGSSYALDYWGQGTSVTVSS
VL: DIVMTQSQKFMSTSVGDRVSVTCKASHNVGTNVAWYQQKPGQSPKPLIYSASYRYSGVPDRFTGSGSGTDFTLTISNVQSEDLADYFCQQFNNYPYTFGGGTKLEIKR
notes: version 1 is written here
What is called Kd is the concentration at which binding is half-saturated. Low readings indicate tighter binding, high ones weaker binding. For orientation: koff means a measure of how fast the partners let go of each other. A word on the kon: it is the rate constant with which the complex forms. As for B1, in the experiment with human His-laminin-α4, the affinity, expressed as Kd, was 13.3 nM; the koff stood at 0.00917 s⁻¹; the kon amounted to 610000 M⁻¹ s⁻¹. In the experiment with mouse His-laminin-α4, this molecule came in with a Kd of 16.1 nM, a koff of 0.00947 s⁻¹ and an on-rate (kon) of 590000 M⁻¹ s⁻¹.

B2: mouse monoclonal antibody 19C12 (antibody, V domains shown)
VH: QVQLQQSGAELVKPGASVKISCKASGYAFSTYWMNWVKQRPGEGLEWIGQIYPGDGDTNYNGKFKGKATLTADKSSSTAYMQLSSLTSEDSAVYFCARSDGYYDYWGQGTTLTVSS
VL: NIVLTQSPASLAVSLGQRATISCRASESVDSYGTSFMHWYQQKPGQPPKLLICLASSLESGVPARFSGSGSRTDFTLTIDPVEADDAATYYCQQNNEDPPTFGAGTKLELKR
notes: Mouse hybridoma antibody; Mouse IgG2b was used as its isotype control; also called m19C12
In the experiment with human His-laminin-α4, B2 gave a dissociation constant (Kd) of 1.27 nM, a koff of 0.00858 s⁻¹ and a kon of 6.72e+06 M⁻¹ s⁻¹. In the experiment with mouse His-laminin-α4, binding was characterised by a dissociation constant (Kd) of 0.965 nM, the koff was 0.0061 s⁻¹ and the kon came to 6.32e+06 M⁻¹ s⁻¹.
